Assay results reported in US20220204643A1 (published 2022).

Key:
[1] = biological target: T1, Egf like and emi domain containing 1, pseudogene (human, UniProt Q0D2K5 1-195); test: protein array
T1 construct: on protein array; also called EGFEM1P
T1 sequence: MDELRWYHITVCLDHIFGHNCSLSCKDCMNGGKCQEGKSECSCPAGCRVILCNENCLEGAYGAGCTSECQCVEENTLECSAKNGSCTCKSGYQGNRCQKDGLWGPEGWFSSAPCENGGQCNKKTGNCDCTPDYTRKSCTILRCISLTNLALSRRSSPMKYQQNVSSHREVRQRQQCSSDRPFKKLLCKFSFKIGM

[2] = biological target: T2, C-X-C motif chemokine receptor 4, transcript variant 2 (human, UniProt P61073 1-352)
T2 construct: also called CXCR4
T2 sequence (P61073 whole entry, change not shown): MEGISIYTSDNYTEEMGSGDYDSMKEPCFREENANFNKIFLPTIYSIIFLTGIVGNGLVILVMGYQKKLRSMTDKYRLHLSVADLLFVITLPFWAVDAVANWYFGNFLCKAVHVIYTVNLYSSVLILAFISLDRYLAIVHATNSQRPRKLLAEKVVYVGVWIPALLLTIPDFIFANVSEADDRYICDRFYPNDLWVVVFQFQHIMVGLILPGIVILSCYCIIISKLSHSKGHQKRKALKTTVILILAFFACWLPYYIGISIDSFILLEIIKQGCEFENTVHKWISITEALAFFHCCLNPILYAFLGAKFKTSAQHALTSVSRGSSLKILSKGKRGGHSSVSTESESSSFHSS

[3] = biological target: T3, Long intergenic non-protein coding rna 242 (human, UniProt Q5T6M2 1-205)
T3 construct: also called LINC00242
T3 chain: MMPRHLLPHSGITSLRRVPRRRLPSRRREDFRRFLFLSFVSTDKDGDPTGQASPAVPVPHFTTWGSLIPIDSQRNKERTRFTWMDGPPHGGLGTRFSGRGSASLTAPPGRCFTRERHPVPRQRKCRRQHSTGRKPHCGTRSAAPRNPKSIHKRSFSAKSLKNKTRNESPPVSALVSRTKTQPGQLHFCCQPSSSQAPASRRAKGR

[4] = biological target: T4, killer cell lectin like receptor C1, transcript variant 3 (human, UniProt P26715 1-233)
T4 construct: also called KLRC1
T4 sequence (P26715 other isoform, or with tags, fused parts or gaps mutant limits assumed): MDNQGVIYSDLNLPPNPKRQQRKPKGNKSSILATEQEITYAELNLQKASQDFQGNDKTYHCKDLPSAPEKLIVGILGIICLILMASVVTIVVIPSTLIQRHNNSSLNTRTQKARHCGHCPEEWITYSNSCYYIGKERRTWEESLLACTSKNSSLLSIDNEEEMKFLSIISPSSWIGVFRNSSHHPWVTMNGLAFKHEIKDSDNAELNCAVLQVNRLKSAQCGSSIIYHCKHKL

[5] = biological target: T5, Ankyrin repeat domain 20 family member a5, pseudogene (human, UniProt A0PJZ0 1-165)
T5 construct: also called ANKRD20A5P
T5 sequence (A0PJZ0 whole entry, the tested form may be a part): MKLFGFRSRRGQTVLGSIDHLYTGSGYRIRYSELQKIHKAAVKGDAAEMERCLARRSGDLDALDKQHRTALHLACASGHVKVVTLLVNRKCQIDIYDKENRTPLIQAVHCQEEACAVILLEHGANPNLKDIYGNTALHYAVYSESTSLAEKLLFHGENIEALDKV

[6] = biological target: T6, Kirre like nephrin family adhesion molecule 1 (human, UniProt Q96J84 17-757, limits assumed)
T6 sequence: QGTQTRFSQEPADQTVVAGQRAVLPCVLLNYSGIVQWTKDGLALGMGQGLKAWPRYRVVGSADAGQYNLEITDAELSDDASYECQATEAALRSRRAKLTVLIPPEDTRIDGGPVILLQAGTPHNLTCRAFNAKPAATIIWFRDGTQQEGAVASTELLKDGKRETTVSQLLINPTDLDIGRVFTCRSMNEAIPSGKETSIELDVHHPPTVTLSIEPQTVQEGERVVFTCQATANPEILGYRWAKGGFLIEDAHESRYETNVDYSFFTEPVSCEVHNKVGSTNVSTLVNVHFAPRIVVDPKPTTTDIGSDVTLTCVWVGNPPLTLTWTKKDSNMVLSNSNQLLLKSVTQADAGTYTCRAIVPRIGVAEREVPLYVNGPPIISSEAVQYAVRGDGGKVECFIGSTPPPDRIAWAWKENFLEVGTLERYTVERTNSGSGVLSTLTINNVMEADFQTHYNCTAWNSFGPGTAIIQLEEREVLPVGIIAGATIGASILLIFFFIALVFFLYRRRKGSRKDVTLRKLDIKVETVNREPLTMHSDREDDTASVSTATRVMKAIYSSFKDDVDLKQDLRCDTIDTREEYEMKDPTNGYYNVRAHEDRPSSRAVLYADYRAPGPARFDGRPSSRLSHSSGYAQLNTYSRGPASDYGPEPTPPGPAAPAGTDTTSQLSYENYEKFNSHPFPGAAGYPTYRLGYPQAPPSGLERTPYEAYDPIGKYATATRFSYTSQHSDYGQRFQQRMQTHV

[7] = biological target: T7, GRB10 interacting GYF protein 1, transcript variant X10 (human, UniProt O75420 1-1035)
T7 construct: also called GIGYF1
T7 sequence: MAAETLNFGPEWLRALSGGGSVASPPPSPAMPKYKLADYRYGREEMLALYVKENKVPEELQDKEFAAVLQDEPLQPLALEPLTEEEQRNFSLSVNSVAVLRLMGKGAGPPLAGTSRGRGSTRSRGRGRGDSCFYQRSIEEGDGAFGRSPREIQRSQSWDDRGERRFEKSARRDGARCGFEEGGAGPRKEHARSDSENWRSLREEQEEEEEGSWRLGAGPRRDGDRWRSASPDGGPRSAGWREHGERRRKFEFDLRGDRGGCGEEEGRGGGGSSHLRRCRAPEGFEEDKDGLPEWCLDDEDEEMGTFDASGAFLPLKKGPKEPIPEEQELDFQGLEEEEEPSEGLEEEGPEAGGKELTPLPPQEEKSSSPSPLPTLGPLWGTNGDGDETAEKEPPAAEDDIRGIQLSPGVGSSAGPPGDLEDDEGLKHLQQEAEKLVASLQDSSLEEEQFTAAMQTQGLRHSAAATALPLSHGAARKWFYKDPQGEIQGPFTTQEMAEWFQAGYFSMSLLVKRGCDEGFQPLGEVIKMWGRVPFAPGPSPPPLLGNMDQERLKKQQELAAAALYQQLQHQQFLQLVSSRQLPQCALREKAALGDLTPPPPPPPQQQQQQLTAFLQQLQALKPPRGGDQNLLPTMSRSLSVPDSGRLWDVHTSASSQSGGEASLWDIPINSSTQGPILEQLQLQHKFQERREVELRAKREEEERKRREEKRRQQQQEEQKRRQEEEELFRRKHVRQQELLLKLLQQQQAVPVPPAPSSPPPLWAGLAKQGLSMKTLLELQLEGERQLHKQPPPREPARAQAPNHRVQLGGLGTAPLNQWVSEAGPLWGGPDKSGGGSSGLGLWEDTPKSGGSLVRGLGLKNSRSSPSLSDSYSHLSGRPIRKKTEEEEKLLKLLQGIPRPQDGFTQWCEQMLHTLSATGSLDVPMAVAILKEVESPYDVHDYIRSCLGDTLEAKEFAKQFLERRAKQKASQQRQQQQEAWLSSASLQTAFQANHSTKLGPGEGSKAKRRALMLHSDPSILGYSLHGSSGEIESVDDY

[8] = biological target: T8, HSPA (Hsp70) binding protein 1, transcript variant 2 (human, UniProt Q9NZL4 1-359)
T8 construct: also called HSPBP1
T8 sequence: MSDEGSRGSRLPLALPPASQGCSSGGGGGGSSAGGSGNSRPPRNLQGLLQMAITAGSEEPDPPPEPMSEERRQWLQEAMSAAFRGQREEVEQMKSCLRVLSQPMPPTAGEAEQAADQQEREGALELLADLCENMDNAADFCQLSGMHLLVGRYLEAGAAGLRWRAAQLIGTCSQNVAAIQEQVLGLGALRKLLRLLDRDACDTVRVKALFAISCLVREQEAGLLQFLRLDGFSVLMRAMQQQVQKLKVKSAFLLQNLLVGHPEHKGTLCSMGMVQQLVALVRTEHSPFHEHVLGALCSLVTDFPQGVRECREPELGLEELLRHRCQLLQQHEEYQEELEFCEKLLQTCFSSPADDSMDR

[9] = biological target: T9, heat shock protein family A (Hsp70) member 2 (human, UniProt P54652 1-639)
T9 construct: also called HSPA2
T9 sequence (P54652 whole entry): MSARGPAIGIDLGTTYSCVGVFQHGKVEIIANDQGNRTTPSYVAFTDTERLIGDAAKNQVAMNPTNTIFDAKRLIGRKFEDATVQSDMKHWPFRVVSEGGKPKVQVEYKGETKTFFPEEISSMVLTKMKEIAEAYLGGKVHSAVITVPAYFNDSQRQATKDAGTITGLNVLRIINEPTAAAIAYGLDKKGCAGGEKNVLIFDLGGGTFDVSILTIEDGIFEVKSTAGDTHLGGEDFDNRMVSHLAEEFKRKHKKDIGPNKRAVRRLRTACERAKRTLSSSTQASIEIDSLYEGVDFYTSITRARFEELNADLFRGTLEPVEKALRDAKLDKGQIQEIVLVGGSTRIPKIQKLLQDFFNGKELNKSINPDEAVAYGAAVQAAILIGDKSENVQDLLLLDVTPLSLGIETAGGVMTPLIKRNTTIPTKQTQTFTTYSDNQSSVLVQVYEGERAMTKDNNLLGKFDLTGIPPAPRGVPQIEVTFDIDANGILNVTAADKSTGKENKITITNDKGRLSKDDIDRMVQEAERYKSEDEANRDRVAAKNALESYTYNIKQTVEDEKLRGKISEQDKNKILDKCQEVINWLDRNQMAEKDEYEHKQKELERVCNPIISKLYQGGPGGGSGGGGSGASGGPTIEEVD

[10] = biological target: T10, BCL2 associated athanogene 2 (human, UniProt O95816 2-211)
T10 construct: also called BAG2
T10 sequence (O95816 2-211 limits assumed): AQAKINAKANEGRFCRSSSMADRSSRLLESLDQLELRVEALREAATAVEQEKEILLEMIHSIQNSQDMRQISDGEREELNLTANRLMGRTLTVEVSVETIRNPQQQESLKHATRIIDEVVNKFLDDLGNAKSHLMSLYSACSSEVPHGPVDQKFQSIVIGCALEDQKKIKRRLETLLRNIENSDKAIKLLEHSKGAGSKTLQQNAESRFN

[11] = biological target: T11, calcium and integrin binding 1, transcript variant b (human, UniProt Q99828 2-191)
T11 construct: also called CIB1
T11 sequence: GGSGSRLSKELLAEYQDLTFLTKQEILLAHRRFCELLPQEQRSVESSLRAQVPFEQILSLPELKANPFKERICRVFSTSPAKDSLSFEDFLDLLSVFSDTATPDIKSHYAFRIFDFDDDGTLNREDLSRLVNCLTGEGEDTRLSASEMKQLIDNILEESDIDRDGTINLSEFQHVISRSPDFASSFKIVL

[12] = biological target: T12, coiled-coil domain containing 74B, transcript variant 2 (human, UniProt Q96LY2 1-380)
T12 construct: also called CCDC74B
T12 sequence (Q96LY2 other isoform, or with tags, fused parts or gaps mutant limits assumed): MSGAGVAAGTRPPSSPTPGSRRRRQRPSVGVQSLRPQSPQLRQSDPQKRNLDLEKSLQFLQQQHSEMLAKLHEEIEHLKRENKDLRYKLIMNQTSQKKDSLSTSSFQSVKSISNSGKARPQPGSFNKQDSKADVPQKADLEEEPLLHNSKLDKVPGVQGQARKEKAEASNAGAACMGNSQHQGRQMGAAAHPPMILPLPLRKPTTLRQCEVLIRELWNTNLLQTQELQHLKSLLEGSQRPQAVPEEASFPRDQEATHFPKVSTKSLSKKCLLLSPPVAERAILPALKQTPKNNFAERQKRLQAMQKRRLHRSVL

[13] = biological target: T13, neural retina leucine zipper, transcript variant X4 (human, UniProt P54845 1-237)
T13 construct: also called NRL
T13 sequence (P54845 whole entry, change not shown): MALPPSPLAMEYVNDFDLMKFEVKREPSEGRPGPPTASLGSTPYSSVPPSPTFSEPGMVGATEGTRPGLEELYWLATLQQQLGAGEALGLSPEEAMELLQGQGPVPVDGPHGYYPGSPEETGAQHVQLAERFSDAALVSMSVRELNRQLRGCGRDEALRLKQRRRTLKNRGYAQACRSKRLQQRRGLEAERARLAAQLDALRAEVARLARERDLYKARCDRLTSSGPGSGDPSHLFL

B1: TBRE1036 (antibody, V domains shown)
VH: QVQLVESGGGVVQPGRSLRLSCAASGFTFSSYAMHWVRQAPGKGLEWVAVISYDGSNKYYADSLKGRFTISRDNSKDTLYLQVNSLRPEDTAVYYCARVNIAAAGTLDYWGQGTLVTVSS
VL: EIVLTQSPGTLSLSPGERATLSCRASQSVSSRYLAWYQQKPGQAPRLLIHGASSRATGIPDRFSGSGSGTDFTLTISRLEPEDFAVYYCQQYGSAWTFGQGTKVEIKR
notes: VH/VL only
- binding result [1]: binds

B2: TSAR1006 (antibody, V domains shown)
VH: QVQLVQSGTEVKKPGASVKVSCKASGYRFTSNGISWVRQAPGQGLQWMGWISTDSGNTNYAQSFQGRVTLTRDTSTNTAYLELRRLRSEDTAVYYCARDKSWYFDYWGQGTLVSVSS
VL: SYELTQPPSVSVSPGQTARITCSGDALPKKYVFWYQQRSGQAPVLVIYEDSKRPSGIPDRFSGSSSGTLATLTISGAQVEDEADYYCYSTDTIGNWVFGGGTRLTVL
- binding result [2]: binds
- binding result [3]: binds

B3: TREC1003 (antibody, V domains shown)
VH: QVQLVQSGSEVKKPGASVRLACKTSGYTFSNYGVSWVRQGPGRGLEWLGWISGYNGRTHSADKFRDRVTLTTDTSTTTVYVDLKNLTSDDTAVYYCARVGTSHWYSDSWGQGTLVTVSS
VL: QSVLTQPPSVSGAPGQRVTISCAGSYSNIGAGYDVHWYRQLPGTAPTLLIYSNNNRPSGVSDRFSGSKSGTSASLAITGLQAEDEADYYCQSFDSSLSRSVFGTGTKVTVL
- binding result [4]: binds

B4: TPRO1002 (antibody, V domains shown)
VH: EVQLVESGGGVIKPGGSLKLSCEGSGFTLDDYVMHWVRQAPGKGLEWISSISGDGTRTYYADSVKGRFTISRNNGKNSLYLQMDSLRREDTALYYCAKDARLAYYGMDVWGQGTTVTVSS
VL: QSALTQPASVSGSPGQSITISCTGTSSDIGGYDLVSWYQHHPGKAPKLVISEGSKRPSGVSNRFFGSKSGNTASLTISGLQAEDEADYYCCSFTGTSTFVFGTGTKVTVL
- binding result [5]: binds
- binding result [6]: binds
- binding result [7]: binds

B5: TSAR1005 (antibody, V domains shown)
VH: QVQLVESGGGVVQPGRSLRLSCVASGFTFSNYAMHWVRQAPGKGLEWVAVIWYDGSNEYYRDSVEGRFTISRDSSKNTLYLLVNSLRAEDTAVYYCARGNGPKSGKYSDFDYWGQGTLVTVSS
VL: DVVMTQSPLSLPVTLGQAASISCRSSQSLVYSDGNTYLNWFQQRPGQSPRRLIYKVSNRESGVPDRFSGSGSGTDFTLQISRVEAEDVGIYYCMQGAHWPPITFGQGTRLEIKR
- binding result [8]: binds
- binding result [9]: binds
- binding result [10]: binds

B6: TSTO1001 (antibody, V domains shown)
VH: VVQLLESGGGLVHPGGSLRISCAASEFTFSAYAMTWVRQAPGKGLEWVSAISGSGGRTYYADSLKGRFTISRDNSKHTLYLLMNSLRVEDTAVYYCASRYRSPSGAFDIWGQGTLVTVSS
VL: EIVMTQSPATLSVSQGERATLSCRASQSVGSDLAWYQQKPGQAPRLLIYDASARATDIPARFSGSGSETEFTLTISSLQSEDFAVYYCQHYSDWRALTFGGGTKVEIKR
- binding result [11]: binds

B7: TSAR1003 (antibody, V domains shown)
VH: QLQLQESGPGLVKPSETLSLTCTVSGVSIGTSSYYWGWIRQPPAKGLEWIGSIYYSGSTYYNPSLKNRVTISVDTSKNHFSLKLSSVTAADTAVYYCARHRTGQYYYNSWGQGTLVTVSS
VL: SSELTQDPAVSVALGQTVRITCQGDSLRTDYATWYQQKPGQAPILVFYGEDNRPSGIPDRFSGSSSGNTASLTITGAQAEDEADYYCNSRDSSGHHWVFGGGTKLTVL
- binding result [12]: binds

B8: TSAR1001 (antibody, V domains shown)
VH: EVQLVESGGGMVQPGESLRLSCAASGFDFTSYWMAWVRQAPGKGLEWVANMNADGSEKHYVDSVKGRFSISRDNAKKLLFLQMNSLTVDDTGVYYCARDEGRREGAWGQGTQVIVSA
VL: EIVLTQSPATLSFSPGDRATLSCRASQNINRFLAWYQQKPGQTPRLLIYDASTRATGIPARFSGSGSGTDFSLIISSLEPEDFAIYYCQQRNNWPITFGPGTKVDVK
- binding result [13]: binds
